Fewer inactive variants are shown than the library holds.
B1: TPR 5TU (parent)
chain: GGAUCUUCUCGAUCUAACAAAAAAGACAAAUCUGCCACAAAGCUUGAGAGCAUCUUCGGAUGCAGAGGCGGCAGCCUUCGGUGGCGCGAUAGCGCCAACGUUCUCAACUAUGACACGCAAAACGCGUGCUCCGUUGAAUGGAGUUUAUCAUG

Variants of: B1
Assay: polymerase ribozyme fitness, log enrichment relative to wild type (log ratio); higher = more active; in vitro selection for triplet polymerase activity
Procedure, shortened: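 For each subunit of a heterodimeric triplet polymerase ribozyme, a mutant library was built by PCR and transcribed, then taken through a single in vitro selection round in triplicate. Selection involved annealing to a biotinylated primer, the partner subunit and triplets, incubation frozen at −7 °C, gel excision of extended constructs, capture on streptavidin beads and RT-PCR. Genotypes were retained after Illumina sequencing of inputs and outputs only with ≥10 input reads and ≥1 read in each output. Fitness is defined as the logarithm of a genotype's enrichment relative to wild-type enrichment, using inverse-variance-weighted averages across replicates, with the logarithm taken to base 2.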

Row | Variant | polymerase ribozyme fitness (log ratio)
1 | GGAUCUUCUCGAUCUAACAAUAAAGACAAAUCUGCCACAAAGCUUGAGAGCAUCUUCGGAUGCAGAGGCGGCAGCCUCCGGUGGCCCGAUAGCGCCAACGUUCUCAACUAUGACACGCAAAACGCGUGCUCCGUUGAAUGGAGUUUAACAUG [A21U U78C G86C U148A] | ≤ -4.2
2 | GGAUCUUCUCGAUCUAACAAAAAAGACAAAUCUGCCACAAAGCUUGAGAGCAGCUUCGGAUGCAGAGGCGGCAGCCUUCGGUGGCGCGAUAGCCCCAACGUUCUCAACUAUGACUCGCAAAACGCGUGCUCCGUUGAAUGGAGUUUAUCAUG [U53G G94C A115U] | -3.49
3 | GGAUCUUCUCGAUCUAACAAAAAAGACAAAUCUGCCACAAAGCUUGAGAGCAUCUUCGGAUGCAGAGGCGGCAGCCUUCGGUGACGCGAUAGCGCCAACGUUCUCAACUAUGACACGAAAAACGCGUGCUCCGUUGAAUGGAGUUUAUCAUG [G84A C118A] | -1.61
4 | GGAUCUUCUCGAUCUAACAAAAAAGACAAAUCUGCCACAAAGCUUGGGAGCGUCUUCGGAUGCAGAGGCGGCAGCCUUCGGUGGCGUGAUAGCGCCAGCGUUCUCAACUAUGACACGCAAAACGCGUGCUCCGUUGAAUGGAGUUUAUCAUG [A47G A52G C87U A98G] | -1.52
5 | GGAUCUUCUCGAUCUAACAAAAAAGACAAAUCUGCCACAAAGCUUGAGAGCAUCUUCGCAUGCAGAGGCGGCAGCAUUCGGUGGCGUGAUAGCGCCAACGUUCUCAACUAUGACACGCAAAACGCGUGCUCCGUUGAAUGGAGUUUCUCAUG [G59C C76A C87U A147C] | -2.29
6 | GGAUCUUCUCGAUCUAACAAAAAAGACAAAUCUGACACAAAGCUUGAGAGCAUCUUCGGAUGCAUAGGCGGCAGCCUUCGGUAGCGCGAUAGCGCCAACGUUCUCAACUAUGACACGCAAAACGCGUGCUCCGUUGAAUUGAGUUUAUCAUG [C35A G65U G83A G140U] | ≤ -4.2
7 | GGAUCUUCUCGAUCUAACAAAAAAGACCAAUCUGCCACAAAGCUUGAGAGCAUCUUCGGAUGCAGAGGUGGCAGCCUUCGGUGGCGCGAUAGCGCCAACGUUCUCAACUAUGACACGCAAAACGCGUGCUCCGUUGAAUGGAGUUUAUCAUG [A28C C69U] | ≤ -4.2
8 | GGAUCUUCUCGAUCUAACAAAAAUGACAAAUCUGCCACAAAGCUUGAGAGCAUCUUCGGAAGCAGAGGCGGCAGCCUUCGGUGGCGCGAUAGAGCCAACGUUCUCAACUAUGACAGGCAAAACGCGUGCUCCGUUGAAUGGAGUUUAUCAUG [A24U U61A C93A C116G] | -4.17
9 | GGAUCUUCUCGAUCUAACAAAAAAGACAAGUCUGCCACAAAGCUUGAGAGCAUCUUCGGAUGCAGAGGCGGCAGACUUCGGUGGCGCGAUAGCUCCAACGUUCUCAACUAUGACACGCAAAACGCGUGCUCCGUUGCAUGGAUUUUAUCUUG [A30G C75A G94U A137C G143U A150U] | ≤ -4.2
10 | GGAUCUUCUCGAUCUAACAAAAAAGACAAAUCUGCCAGAAAGCUUGAGAGCAUCUUCGGAUGCAGAGGCGGCAGUCUUCGGUGGCGCGAUAGGGCCAACGUUCUCAACUAUGACACGCAAAACGCGUGCUCCGUUGAAUGGAGUUUAUCAUG [C38G C75U C93G] | -4.16
11 | GGAUCUUCUCGAUCUAACAAAAAAGACAAAUCUGCCACAAAGCUUGAGAGCAUCUUAGGAUGCAAAGGCGGCAGCCUUCGGGGGCGCGAUAGCGCCAACGUUCUCAACUAUGACACGCAAAACGCGUGCUCCGUUGAAUGGAGUUUAUCAUG [C57A G65A U82G] | -0.673
12 | GGAUGUUCUCGAUCUAACAAAAAAGACAAAUCUGCCACAAAGCUUGAGAACAUCUUCGGAUGCAGAGGCGGCAGCCUUCGGUGGCGUGAUAGCGCCAACGUUGUCAACUACGACACGCAAAACGCGUGCUCUGUUGAAUGGAGUUUAUCAUG [C5G G50A C87U C103G U111C C132U] | ≤ -4.2
13 | GGAUCUUCUCGAUCUAACAAAAAAGACAAAUCCGCCACAAUGCUUGAGAGCAUCUUUGGAUGCAGAGGCCGCAGCCUUCGGUAGCGCGAUAGCGCCAACGUUCUCAACUAUGACACGCCAAACGCGUGCUCCGUUGAAUGGAGUUUAUCAUG [U33C A41U C57U G70C G83A A119C] | ≤ -4.2
14 | GGAUCUUCUCGAUCUAACAAAAAAGACAAAUCUGCCACAAAGCUUGAGAGCAUCUUCGCAUGCAGAGGCGGCAGCCUUCGGUGGCGCGAUAGUGCCAACGUACUCAACUAUGACACGCAAAACGCGUGCUCCGUUGGAUGGAGUUUAUCAUG [G59C C93U U102A A137G] | -3.95
15 | GGAUCUACUCGAUCUAACAUAAAAGACAAAGCUGCCACAAAGCUUGAGAGCAUCUUCGGAUGCAGAGGCGGCAGCCUUCGGUGGCGCGAUAGCGCCAACGUUCUCAACUAUGACAUGCAAAACGCGUGCUCCGUUGAAUGGAGUUUAUCAUG [U7A A20U U31G C116U] | -3.58
16 | GGAUCUUCUCGAUCUAACAAAAAAGACAAAUCUGCCACAAAGCUUGAGAGCAUCUUCGGAUGCAGAGGCCGCAGCCUUCGGUGGCGCGAUAGCGCCAACGUUCUCAACUAUGACACGCAAAACGCGUGCUCCGGUGAAUGGAGUUUAUCAUG [G70C U134G] | -4.17
17 | GGAUCUUCUCGAUCUAACAAAAAAGACAAAUCUGCCACAAAGCUUGAGAGCAUCUUCGGAUGCAGAGGCGGCAGCCUUCGGUGGCGCGAUAGCGCUAACGUUCUCAACUUUGACACGCAAAACGCGUGCUCCGUUGAAUGGAGUUUAUCAUG [C96U A110U] | -3.6
18 | GGAUCUUCUCGAUCUAACAAAUAAGACAAAUCUGCCACAAAGCUUGAGAGCAUCUUCGGAUGCAGAGGCGGCAGCCUUCGGUGGCGUGAUAGCGCCAACGUUCUCAACUAUGACACGCAAAACGCGUGCUCCGUUGAAUGGAGUUUAUCAUG [A22U C87U] | 0.455
19 | GGAUCUUCUCGAUCUAACAAAAAAGACAAAUCUGCCACAAAGCUUGAGAGCAUCUUCGGAUGCAGGGGCGGCAGCCUUCGGUUGCGCGAUAGCGCCAACGUUCUCAACUAUGACACGCAAAACGCGUGCUCCGUUGAAUGGAGUUUAUCAUG [A66G G83U] | -3.62
